In US9925134B2, “Use of substances to protect FGF-2 or FGF-beta growth factor” (BASF Beauty Care Solutions France SAS, priority 2007, dated 2018):

Columns and labels:
[1] = biological target: T1, cathepsin G (Homo sapiens, UniProt P08311); assay: Degradation kinetics of FGF-2 by cathepsin G; type: biochemical; conditions: for FGF-2 concentration in the presence of cathepsin G / FGF-2 concentration Temperature control: 37° C.; for FGF-2 concentration in the presence of cathepsin G: cathepsin G 0.02 U per well; for FGF-2 concentration Temperature control: enzyme-free; for Degradation % in the presence of cathepsin G: relative to temperature control
T1 sequence (P08311 21-244): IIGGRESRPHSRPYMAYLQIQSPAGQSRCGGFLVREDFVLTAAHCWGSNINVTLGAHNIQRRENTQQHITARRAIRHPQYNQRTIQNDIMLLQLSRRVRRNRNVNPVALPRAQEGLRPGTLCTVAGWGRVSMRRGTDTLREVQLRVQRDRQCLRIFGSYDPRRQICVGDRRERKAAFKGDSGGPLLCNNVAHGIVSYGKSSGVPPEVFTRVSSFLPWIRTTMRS
Method: For this reason, a study of the degradation of FGF-2 by cathepsin G was conducted. Degradation kinetics was carried out in a 100 mM Hepes buffer, pH7 containing 0.1% BSA. Cathepsin G was added into the wells of the plate at a concentration of 0.02 U per well to a 2 ng/well FGF-2 solution. The plate was incubated at 37° C. and sampling was performed at 15, 30, 60, 90 and 120 minutes in order to dose the remaining FGF-2.
The control (100%) is made by extemporaneous dosage of FGF-2. At the same time, an enzyme-free control solution is placed at 37° C. in order to study thermal degradation at the different times, so as to get rid of this degradation due to temperature and to quantify the portion only due to enzymatic degradation.

[2] = 37° C.; neutral pH; cited from earlier work
[3] = biological target: FGF-2 (Homo sapiens, UniProt P09038); assay: Study of thermal degradation (stability) of FGF-2 at various temperatures with or without heparin, ELISA; type: physicochemical; conditions: without heparin
Chain of FGF-2 (P09038 143-288): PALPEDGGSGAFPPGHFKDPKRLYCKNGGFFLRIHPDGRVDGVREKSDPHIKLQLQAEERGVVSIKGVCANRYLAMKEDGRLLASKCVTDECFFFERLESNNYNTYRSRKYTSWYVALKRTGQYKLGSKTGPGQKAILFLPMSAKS
Method: A 5 ng/ml solution of FGF-2 in a 10 mM PBS buffer with 0.1% BSA and 0.1% of methylparaben is prepared.
This solution is placed at various temperatures: 4° C., 20° C., 37° C., 50° C., and 80° C. either in the presence of heparin or not at 500 μg/ml.
Dosages of FGF-2 with a commercial ELISA kit (R&D system, France) are performed at different times (T=0, 3 hrs, 24 hrs and 48 hrs) so as to establish degradation kinetics for each temperature of investigation.
The results are expressed as a percentage of FGF-2 relative to time T=0. The experiments are conducted in triplicates (n=3). The obtained results are illustrated in FIGS. 1 and 2.

[4] = tested on: normal human dermal fibroblasts; assay: Fibroblast proliferation by FGF-2 protected by heparin or extract 5c (PNPP); type: cell-based; conditions: for Proliferation (expressed as percent relative to the non-treated well): 48 hrs, heparin 0.01% during 24 hrs at 37° C.
Method: A solution of FGF-2 is prepared extemporaneously (=non-degraded FGF-2); a solution of FGF-2 is placed for 24 hrse at 37° C. in the absence (=degraded FGF-2) and in the presence of heparin (=FGF-2+heparin at 37° C.) at 0.01%.
Each FGF-2 solution is diluted so as to be applied on the cells, the final FGF-2 concentrations being the following: 0.1, 0.25, 0.5, 0.75 and 1 ng/ml.
Normal human dermal fibroblasts were sown at low density in 6-well plates. They were then grown in a medium in the absence (control) or in the presence of FGF-2 at various concentrations.
After 48 hrs, the activity of intracellular acid phosphatases (PNPP) is dosed, so as to be able to evaluate the effect of FGF-2 solutions, either treated or not, on cell proliferation.
The results are expressed as a proliferation percentage relative to the control well i.e. to the non-treated well.
The same experiment was conducted by replacing heparin with extract 5c. The FGF-2 solution put into the presence of 0.5% of extract 5c is placed for 24 hrs at 37° C. The solution is then diluted so as to apply 0.5 ng/ml of FGF-2 in the wells containing the fibroblasts.
The 5c extract concentration finally applied on the cells is 0.0025%. It was checked beforehand that this 5c extract concentration was not capable of inducing stimulation of the proliferation of fibroblasts. This means that the observed stimulation of proliferation is actually due to the protection of FGF-2 by extract 5c (see Table 8).

FGF-2: Fibroblast Growth Factor; non-degraded = solution of FGF-2 prepared extemporaneously
FGF-2 concentration in the presence of cathepsin G ([1]; 0 minutes): 339.05 ± 7.43 pg/mL
FGF-2 concentration Temperature control ([1]; 0 minutes): 391.8 ± 3.64 pg/mL
Degradation % in the presence of cathepsin G ([1]; 0 minutes): 13.29%
FGF-2 concentration in the presence of cathepsin G ([1]; 15 minutes): 295.61 ± 8.49 pg/mL
FGF-2 concentration Temperature control ([1]; 15 minutes): 324.99 ± 1.7 pg/mL
Degradation % in the presence of cathepsin G ([1]; 15 minutes): 8.95%
FGF-2 concentration in the presence of cathepsin G ([1]; 30 minutes): 248.04 ± 1.97 pg/mL
FGF-2 concentration Temperature control ([1]; 30 minutes): 291.83 ± 2.4 pg/mL
Degradation % in the presence of cathepsin G ([1]; 30 minutes): 14.77%
FGF-2 concentration in the presence of cathepsin G ([1]; 60 minutes): 203.67 ± 1.13 pg/mL
FGF-2 concentration Temperature control ([1]; 60 minutes): 280.64 ± 3.23 pg/mL
Degradation % in the presence of cathepsin G ([1]; 60 minutes): 27.5%
FGF-2 concentration in the presence of cathepsin G ([1]; 90 minutes): 141.94 ± 5.14 pg/mL
FGF-2 concentration Temperature control ([1]; 90 minutes): 259.81 ± 4.9 pg/mL
Degradation % in the presence of cathepsin G ([1]; 90 minutes): 45.55%
FGF-2 concentration in the presence of cathepsin G ([1]; 120 minutes): 131.36 ± 2.49 pg/mL
FGF-2 concentration Temperature control ([1]; 120 minutes): 241.67 ± 1.97 pg/mL
Degradation % in the presence of cathepsin G ([1]; 120 minutes): 45.6%
half-life time of FGF-2 in vitro [2]: about 24 hours
FGF-2 degraded (percentage relative to T=0) ([3]; 4° C., 48 hrs): 20%
FGF-2 degradation (percentage relative to T=0) ([3]; 37° C., 3 hrs): 65%
FGF-2 degraded (percentage relative to T=0) ([3]; 37° C., 24 hrs): 80%
FGF-2 degradation (percentage relative to T=0) ([3]; 50° C., 3 hrs): 80%
FGF-2 degradation (in words) ([3]; 80° C., 3 hrs): total degradation
Proliferation (as a percentage) of fibroblasts relative to the non-treated control ([4]; FGF-2 0.5 ng/ml, 0.5% 5c extract during 24 hrs at 37° C. (0.0025% on the cells)): 148.5% ± 0.007
Proliferation (expressed as percent relative to the non-treated well) ([4]; FGF-2 concentration 0.1 ng/ml): 116.7 ± 0.012%
Proliferation (expressed as percent relative to the non-treated well) ([4]; FGF-2 concentration 0.25 ng/ml): 138.7 ± 0.005%
Proliferation (expressed as percent relative to the non-treated well) ([4]; FGF-2 concentration 0.5 ng/ml): 148.5 ± 0.007%
Proliferation (expressed as percent relative to the non-treated well) ([4]; FGF-2 concentration 0.75 ng/ml): 163.2 ± 0.005%
Proliferation (expressed as percent relative to the non-treated well) ([4]; FGF-2 concentration 1 ng/ml): 160 ± 0.003%
